Assays:
[1] = target: T1, human dimethylglycine dehydrogenase (hDMGDH) (Homo sapiens, UniProt Q9UI17); test: stopped flow, FAD reduction at […] nm, hyperbolic fit of kobs; format: biochemical; details: anaerobic, 50 mM HEPES/NaOH, 150 mM NaCl, pH 7.8, 25 °C; pre-steady-state; read-out: K D,DMG
T1 construct: gene DMGDH; covalent FAD at His91
T1 sequence (Q9UI17 29-866): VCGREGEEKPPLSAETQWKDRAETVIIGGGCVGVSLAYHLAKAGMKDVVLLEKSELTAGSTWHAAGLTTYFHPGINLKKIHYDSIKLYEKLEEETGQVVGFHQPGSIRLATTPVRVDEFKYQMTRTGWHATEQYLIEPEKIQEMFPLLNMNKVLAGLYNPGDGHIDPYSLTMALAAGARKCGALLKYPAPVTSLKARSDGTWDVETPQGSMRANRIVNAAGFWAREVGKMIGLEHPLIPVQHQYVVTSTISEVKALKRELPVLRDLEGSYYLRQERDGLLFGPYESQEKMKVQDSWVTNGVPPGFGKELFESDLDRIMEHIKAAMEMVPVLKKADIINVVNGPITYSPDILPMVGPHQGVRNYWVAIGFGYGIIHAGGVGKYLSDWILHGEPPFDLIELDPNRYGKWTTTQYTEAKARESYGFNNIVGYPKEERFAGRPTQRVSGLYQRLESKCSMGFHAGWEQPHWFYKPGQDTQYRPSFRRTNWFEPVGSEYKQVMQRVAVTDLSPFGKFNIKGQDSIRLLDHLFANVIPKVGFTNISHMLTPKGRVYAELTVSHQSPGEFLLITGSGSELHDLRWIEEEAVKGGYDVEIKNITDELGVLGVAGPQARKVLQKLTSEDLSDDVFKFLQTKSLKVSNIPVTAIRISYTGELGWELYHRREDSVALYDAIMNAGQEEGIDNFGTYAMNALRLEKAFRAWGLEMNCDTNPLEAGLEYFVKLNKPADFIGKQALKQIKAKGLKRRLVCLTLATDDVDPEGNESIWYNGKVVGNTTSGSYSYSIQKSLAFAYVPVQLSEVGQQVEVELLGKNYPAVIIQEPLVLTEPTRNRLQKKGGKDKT

[2] = target: T1, human dimethylglycine dehydrogenase (hDMGDH); test: X-ray crystal structure, […] Å; format: binding; details: covalent; 8alpha-methyl group linked to N3 of His91
[3] = target: T1, human dimethylglycine dehydrogenase (hDMGDH); test: ferrocenium activity assay against THF concentration; format: biochemical; details: 1 mM DMG, 0.2 mM ferrocene, 0-75 μM THF, 50 mM HEPES/NaOH, 150 mM NaCl, 0.1 mM EDTA, pH 7.8, 25 °C; physiological methyl acceptor
purified protein = substrate: CN(C)CC(=O)O; test: purified protein; format: biochemical, Homo sapiens; details: 0.2 mM ferrocenium hexafluorophosphate as electron acceptor, 50 mM HEPES/NaOH, 150 mM NaCl, 0.1 mM EDTA, pH 7.8, 25 °C
[4] = natural disease variant, partly apoprotein

With `CN(C)CC(=O)O` [DMG, dimethylglycine] as the molecule, how does the Kd [1] read?
Its Kd is 4.9 ± 0.3 mM.

With `Cc1cc2nc3c(=O)[nH]c(=O)nc-3n(C[C@H](O)[C@H](O)[C@H](O)COP(=O)(O)OP(=O)(O)OC[C@H]3O[C@@H](n4cnc5c(N)ncnc54)[C@H](O)[C@@H]3O)c2cc1C` [FAD, flavin adenine dinucleotide] as the molecule, how does the “X-ray crystal structure, 3.1 Å” value [2] read?
Its value is “The FAD cofactor is covalently attached to the protein through a linkage between N3”.

For `Nc1nc2c(c(=O)[nH]1)N[C@@H](CNc1ccc(C(=O)N[C@@H](CCC(=O)O)C(=O)O)cc1)CN2` [THF, tetrahydrofolate], which activity [3] is on record?
Its activity is “the activity of WT decreases as a function of the THF concentration”.

B1: human dimethylglycine dehydrogenase (hDMGDH) (Homo sapiens) (protein)
chain: VCGREGEEKPPLSAETQWKDRAETVIIGGGCVGVSLAYHLAKAGMKDVVLLEKSELTAGSTWHAAGLTTYFHPGINLKKIHYDSIKLYEKLEEETGQVVGFHQPGSIRLATTPVRVDEFKYQMTRTGWHATEQYLIEPEKIQEMFPLLNMNKVLAGLYNPGDGHIDPYSLTMALAAGARKCGALLKYPAPVTSLKARSDGTWDVETPQGSMRANRIVNAAGFWAREVGKMIGLEHPLIPVQHQYVVTSTISEVKALKRELPVLRDLEGSYYLRQERDGLLFGPYESQEKMKVQDSWVTNGVPPGFGKELFESDLDRIMEHIKAAMEMVPVLKKADIINVVNGPITYSPDILPMVGPHQGVRNYWVAIGFGYGIIHAGGVGKYLSDWILHGEPPFDLIELDPNRYGKWTTTQYTEAKARESYGFNNIVGYPKEERFAGRPTQRVSGLYQRLESKCSMGFHAGWEQPHWFYKPGQDTQYRPSFRRTNWFEPVGSEYKQVMQRVAVTDLSPFGKFNIKGQDSIRLLDHLFANVIPKVGFTNISHMLTPKGRVYAELTVSHQSPGEFLLITGSGSELHDLRWIEEEAVKGGYDVEIKNITDELGVLGVAGPQARKVLQKLTSEDLSDDVFKFLQTKSLKVSNIPVTAIRISYTGELGWELYHRREDSVALYDAIMNAGQEEGIDNFGTYAMNALRLEKAFRAWGLEMNCDTNPLEAGLEYFVKLNKPADFIGKQALKQIKAKGLKRRLVCLTLATDDVDPEGNESIWYNGKVVGNTTSGSYSYSIQKSLAFAYVPVQLSEVGQQVEVELLGKNYPAVIIQEPLVLTEPTRNRLQKKGGKDKT
notes: covalent FAD at His91
How did the Km (purified protein) turn out when B1 was run?
The Km was 1.4 ± 0.1 mM.

What about the Vmax (purified protein) of the same molecule?
Its Vmax is 22.1 µM/min.

What about the kcat (purified protein) of the same molecule?
The kcat was 3.55 ± 0.0667 s⁻¹.

And the kcat/Km (purified protein)?
The kcat/Km was 2280 ± 267 M⁻¹ s⁻¹.

B2: human dimethylglycine dehydrogenase (hDMGDH) (Homo sapiens; H109R) (protein)
chain: VCGREGEEKPPLSAETQWKDRAETVIIGGGCVGVSLAYHLAKAGMKDVVLLEKSELTAGSTWHAAGLTTYFHPGINLKKIRYDSIKLYEKLEEETGQVVGFHQPGSIRLATTPVRVDEFKYQMTRTGWHATEQYLIEPEKIQEMFPLLNMNKVLAGLYNPGDGHIDPYSLTMALAAGARKCGALLKYPAPVTSLKARSDGTWDVETPQGSMRANRIVNAAGFWAREVGKMIGLEHPLIPVQHQYVVTSTISEVKALKRELPVLRDLEGSYYLRQERDGLLFGPYESQEKMKVQDSWVTNGVPPGFGKELFESDLDRIMEHIKAAMEMVPVLKKADIINVVNGPITYSPDILPMVGPHQGVRNYWVAIGFGYGIIHAGGVGKYLSDWILHGEPPFDLIELDPNRYGKWTTTQYTEAKARESYGFNNIVGYPKEERFAGRPTQRVSGLYQRLESKCSMGFHAGWEQPHWFYKPGQDTQYRPSFRRTNWFEPVGSEYKQVMQRVAVTDLSPFGKFNIKGQDSIRLLDHLFANVIPKVGFTNISHMLTPKGRVYAELTVSHQSPGEFLLITGSGSELHDLRWIEEEAVKGGYDVEIKNITDELGVLGVAGPQARKVLQKLTSEDLSDDVFKFLQTKSLKVSNIPVTAIRISYTGELGWELYHRREDSVALYDAIMNAGQEEGIDNFGTYAMNALRLEKAFRAWGLEMNCDTNPLEAGLEYFVKLNKPADFIGKQALKQIKAKGLKRRLVCLTLATDDVDPEGNESIWYNGKVVGNTTSGSYSYSIQKSLAFAYVPVQLSEVGQQVEVELLGKNYPAVIIQEPLVLTEPTRNRLQKKGGKDKT
notes: covalent FAD at His91
With B2 as the molecule, how does the Km (purified protein; [4]) read?
Its Km is 32.2 ± 5.6 mM.

What about the Vmax (purified protein; [4]) of the same molecule?
Its Vmax is 44.1 µM/min.

And the kcat (purified protein; [4])?
Its kcat is 9.07 ± 0.667 s⁻¹.

And the kcat/Km (purified protein; [4])?
Its kcat/Km is 183 ± 16.7 M⁻¹ s⁻¹.

Reference: article PMC5082570, “Structure and biochemical properties of recombinant human dimethylglycine dehydrogenase and comparison to the disease‐related H109R variant” (The Febs Journal, 2016)
